Here are results for seven sequences from the DeepSol protein solubility set.

This data set is described as follows: soluble on expression in E. coli; label from the status in PepcDB or PDB records.
On to “MLENYARFITAASAARNPSPIRTMTDILSRGPKSMISLAGGLPNPNMFPFKTAVITVENGKTIQFGEEMMKRALQYSPSAGIPELLSWLKQLQIKLHNPPTIHYPPSQGQMDLCVTSGSQQGLCKVFEMIINPGDNVLLDEPAYSGTLQSLHPLGCNIINVASDESGIVPDSLRDILSRWKPEDAKNPQKNTPKFLYTVPNGNNPTGNSLTSERKKEIYELARKYDFLIIEDDPYYFLQFNKFRVPTFLSMDVDGRVIRADSFSKIISSGLRIGFLTGPKPLIERVILHIQVSTLHPSTFNQLMISQLLHEWGEEGFMAHVDRVIDFYSNQKDAILAAADKWLTGLAEWHVPAAGMFLWIKVKGINDVKELIEEKAVKMGVLMLPGNAFYVDSSAPSPYLRASFSSASPEQMDVAFQVLAQLIKESL”, for which the “soluble on expression in E. coli” value is reported as “soluble”.

With “MLERLKAITNLLKGALEQRSRAEEGYIREEKVKEAIELLEALERDIMEKELKLAKEALEKFDSNRKFYYLVGKLYVEVSKEEAQKLIEDELKMFGGEGK”, the “soluble on expression in E. coli” value was “not soluble”.

For the sequence “MLGGNNDNPVPQVLMNDSQFRYQSNTSLNQLHLLGTMRAGCTIDPVNYFANDNLAPMMRLNSTRGRETENNNIMQRQQKLQISLNYNYNNNNTVVQDEVPKQNLVSTGLRLSYDDDERNSSVTSANGSITTPVYQSLGDNIRLDLNRQNDELDQFIKFRADQMAKGVRDIKQRHVTSFVTALEKDVSKKLQEKDHEIESMNKKNRELVDKIKQVAVEAQNWHYKAKYNESVVNALKVNLQQVMSHGNDNNAVGGGVADHHQMKEGFGDSEIDDEAASYNYLNIPGMPSTGMRCKLCNVKNVSVLLVPCRHLSLCKDCDVFTGVCPVCQSLKTSSVQVFFF”, the “soluble on expression in E. coli” value is given as “soluble”.

For the sequence “MLGLKTSIIGRRVIYFQEITSTNEFAKTSYLEEGTVIVADKQTMGHGALNRKWESPEGGLWLSIVLSPKVPQKDLPKIVFLGAVGVVETLKEFSIDGRIKWPNDVLVNYKAIAGVLVEGKGDKIVLGIGLNVNNKVPNGATSMKLELGSEVPLLSVFRSLITNLDRLYLNFLKNPMDILNLVRDNMILGVRVKILGDGSFEGIAEDIDDFGRLIIRLDSGEVKKVIYGDVSLRFL”, the “soluble on expression in E. coli” value is recorded as “soluble”.

In the case of “MLHAETEVIVEDEPPILNLSRYRDEDRIQMDPFGDDEEEDDGFMDGQPPDLEMNLPSKQRRVRTRKPMDTDGSIDDGDKEKKAMKIINPAAATPSKMFRVQGERVISKALAERQYHVKLFEDEVEMTENGDCYATVISGCLAYLLRKERIIELLTNETEIAMMYGDKKKKYKKKISSKNKENCQNFKLLSEKSVRKKKQKSTVPIFSREGGWLLDKPPRLPPLVPHKACFAFYVDGSKIMSIKDVSNDDLKPWSSTGGEQHFNDPVIKPNVRRHPVARLNGRLQSVKGDPRIAELHLTEYSAWLPRLLRLRKKIFYLSRDGQIYGNVLILYDYTCPGEIPPIVNLPHGNDYLRHAMVDPTDPHVSLDLDDPGSTPFEDEIVEGPRGGMFLRVKLAKLGWAHNKKLLLRYLVNEPELLSQSNCLNRRTPYLPPLIPTTGVFVYFVPANFVANQINHTGDGLSPWTVNPASEGPSPRVRSTRRAIVQDDNGQFQMAKDTAGGWHSSQLCLVETMSVLARCPRLRKRLIYIQRNNTITIGNVCYIYEYVRDGPVPCPYVKPPGTPGRGVGGSKWIDDQKKIDTSQDPSTSSAAPNDEEQFIDVEDLEVVEEEVIGHHNDSLDQIQLQHDQHQQQQHQLMQDVSIAQDAQGHLLDDDLLDMSQEDVLNNGYDLEFDDDPLTQQENPAPYFENPRQLETGHIYLTVRHKRVASTFEAVLEWIANTNVVEERGLLNYAKPGHPPIVRNSRAYAFFVAGTAIFPHDINRDDFSPWSHNGNAQNPTCYRTKVRKVGVICDELGSQFQVLHGSQGKQPKKSDGNRRSPKIPKSAYFL”, the “soluble on expression in E. coli” value is “not soluble”.

“MLIAIEGVDGAGKRTLVEKLSGAFRAAGRSVATLAFPRYGQSVAADIAAEALHGEHGDLASSVYAMATLFALDRAGAVHTIQGLCRGYDVVILDRYVASNAAYSAARLHENAAGKAAAWVQRIEFARLGLPKPDWQVLLAVSAELAGERSRGRAQRDPGRARDNYERDAELQQRTGAVYAELAAQGWGGRWLVVGADVDPGRLAATLAPPDVPS”: the “soluble on expression in E. coli” value was “soluble”.

As for “MLIALTGTPGTGKSSVAERLRERGYKVATVVELAEKHGCIIDEEDGEIVIDVESLAARIDFEGIVEGHLSHLLKPDVAIVLRCNPAVLRERLKGRNWSEEKLLENLEAEMLDVILVEALEHASEVYEIDTTEMSLEEVIEAVEAIIRGDREARKRYKPGGIDWLSELEDRIEEFMRKVLEHHHHHH”, the “soluble on expression in E. coli” value is “soluble”.
